{"source": "patent US20260167699A1", "about": "(Chugai, published 2026)", "binders": {"B1": {"name": "GpH7-A5/GpH7-B3 variant S324_01G/GpL16-k0 (antibody, human IgG1, kappa)", "heavy 1": "not shown", "heavy 2": "not shown", "light": "DIVMTQSPLSLPVTPGEPASISCQASESLVHSNRNTYLHWYLQKPGQSPQLLIYKVSNRFSGVPDRFSGSGSGTDFTLKISRVEAEDVGVYYCSQNTHVPPTFGQGTKVEIERTVAAPSVFIFPPSDEQLKSGTASVVCLLNNFYPREAKVQWKVDNALQSGNSQESVTEQDSKDSTYSLSSTLTLSKADYEKHKVYACEVTHQGLSSPVTKSFNRGEC", "notes": "He Ab: anti-glypican 3 IgG1 heterodimer, only the GpH7-B3 chain mutated; position in EU numbering; also called He Ab"}, "B2": {"name": "GpH7-A5/GpH7-B3 variant S324_06M/GpL16-k0 (antibody, human IgG1, kappa)", "heavy 1": "not shown", "heavy 2": "not shown", "light": "B1 light", "notes": "as for B1"}, "B3": {"name": "GpH7-A5/GpH7-B3 variant S324_02A/GpL16-k0 (antibody, human IgG1, kappa)", "heavy 1": "not shown", "heavy 2": "not shown", "light": "B1 light", "notes": "as for B1"}, "B4": {"name": "GpH7-A5/GpH7-B3 variant S324_16H/GpL16-k0 (antibody, human IgG1, kappa)", "heavy 1": "not shown", "heavy 2": "not shown", "light": "B1 light", "notes": "as for B1"}, "B5": {"name": "H240-Kn125/H240-Hl076/L73-k0 (antibody, human IgG1, kappa)", "heavy 1": "QDQLVQSGAEVKKPGASVKVSCKASGFNIKDTYIQWVRQAPGQGLEWMGRIDPLRKQTKYREKFEGRVTITADTSTNTAYMELSSLRSEDTAVYYCVRSGREFDYWGQGTLVTVSSASTKGPSVFPLAPSSKSTSGGTAALGCLVKDYFPEPVTVSWNSGALTSGVHTFPAVLQSSGLYSLSSVVTVPSSSLGTQTYICNVNHKPSNTKVDKKVEPKSCDKTHTCPPCPAPELLGGPSVFLFPPKPKDTLMISRTPEVTCVVVDVSHEEPEVKFNWYVDGVEVHNAKTKPREEQYNSTYRVVSVLTVLHQDWLNGKEYKCKVSNDALPMPIEETISKAKGQPREPQVYTLPPSRCELTKNQVSLSCAVKGFYPSDIAVEWESNGQPENNYKTTPPVLDSDGSFFLVSKLTVDKSRWQQGNVFSCSVMHEALHNHYTQKSLSLSP", "heavy 2": "QDQLVQSGAEVKKPGASVKVSCKASGFNIKDTYIQWVRQAPGQGLEWMGRIDPLRKQTKYREKFEGRVTITADTSTNTAYMELSSLRSEDTAVYYCVRSGREFDYWGQGTLVTVSSASTKGPSVFPLAPSSKSTSGGTAALGCLVKDYFPEPVTVSWNSGALTSGVHTFPAVLQSSGLYSLSSVVTVPSSSLGTQTYICNVNHKPSNTKVDKKVEPKSCDKTHTCPPCPAPEYQWGPMVFLFPPKPKDTLMISRTPEVTCVVVDVSDEEPEVKFNWYVDGVEVHNAKTKPREEQYNATYRVVSVLTVLHQDWLNGKEYKCKVSNKALPAPIEKTISKAKGQPREPQVCTLPPSRDELTKNQVSLWCLVKGFYPSDIAVEWESNGQPENNYKTTPPVLDSDGSFFLYSKLTVDKSRWQQGNVFSCSVMHEALHNHYTQKSLSLSP", "light": "DIQMTQSPSSLSASVGDRVTITCRASQDIHKYIAWYQQKPGQAPRLLIQYTSTLQPGVPSRFSGSGSGTDYTFTISSLQPEDIATYYCLQYEQLRTFGGGTKVEIKRTVAAPSVFIFPPSDEQLKSGTASVVCLLNNFYPREAKVQWKVDNALQSGNSQESVTEQDSKDSTYSLSSTLTLSKADYEKHKVYACEVTHQGLSSPVTKSFNRGEC", "notes": "heterodimerized anti-EREG antibody, parent of the loop-extended forms; also called HI076/Kn125; parent peptide"}, "B6": {"name": "HI076-L3-3 (antibody, human IgG1, kappa)", "heavy 1": "QDQLVQSGAEVKKPGASVKVSCKASGFNIKDTYIQWVRQAPGQGLEWMGRIDPLRKQTKYREKFEGRVTITADTSTNTAYMELSSLRSEDTAVYYCVRSGREFDYWGQGTLVTVSSASTKGPSVFPLAPSSKSTSGGTAALGCLVKDYFPEPVTVSWNSGALTSGVHTFPAVLQSSGLYSLSSVVTVPSSSLGTQTYICNVNHKPSNTKVDKKVEPKSCDKTHTCPPCPAPELLGGPSVFLFPPKPKDTLMISRTPEVTCVVVDVSHEEPEVKFNWYVDGVEVHNAKTKPREEQYNSTGGSYRVVSVLTVLHQDWLNGKEYKCKVSNDALPMPIEETISKAKGQPREPQVYTLPPSRCELTKNQVSLSCAVKGFYPSDIAVEWESNGQPENNYKTTPPVLDSDGSFFLVSKLTVDKSRWQQGNVFSCSVMHEALHNHYTQKSLSLSP", "heavy 2": "B5 heavy 2", "light": "B5 light", "notes": "heterodimerized anti-EREG antibody: altered H240-Hl076 chain (Gly/Ser peptide in loop) with H240-Kn125 and L73-k0; also called Hl076-L3-3"}, "B7": {"name": "HI076-L2-9 (antibody, human IgG1, kappa)", "heavy 1": "QDQLVQSGAEVKKPGASVKVSCKASGFNIKDTYIQWVRQAPGQGLEWMGRIDPLRKQTKYREKFEGRVTITADTSTNTAYMELSSLRSEDTAVYYCVRSGREFDYWGQGTLVTVSSASTKGPSVFPLAPSSKSTSGGTAALGCLVKDYFPEPVTVSWNSGALTSGVHTFPAVLQSSGLYSLSSVVTVPSSSLGTQTYICNVNHKPSNTKVDKKVEPKSCDKTHTCPPCPAPELLGGPSVFLFPPKPKDTLMISRTPEVTCVVVDVSHGGSGGSGGSEEPEVKFNWYVDGVEVHNAKTKPREEQYNSTYRVVSVLTVLHQDWLNGKEYKCKVSNDALPMPIEETISKAKGQPREPQVYTLPPSRCELTKNQVSLSCAVKGFYPSDIAVEWESNGQPENNYKTTPPVLDSDGSFFLVSKLTVDKSRWQQGNVFSCSVMHEALHNHYTQKSLSLSP", "heavy 2": "B5 heavy 2", "light": "B5 light", "notes": "heterodimerized anti-EREG antibody: altered H240-Hl076 chain (Gly/Ser peptide in loop) with H240-Kn125 and L73-k0; also called Hl076-L2-9"}, "B8": {"name": "HI076-L2-GS12 (antibody, human IgG1, kappa)", "heavy 1": "QDQLVQSGAEVKKPGASVKVSCKASGFNIKDTYIQWVRQAPGQGLEWMGRIDPLRKQTKYREKFEGRVTITADTSTNTAYMELSSLRSEDTAVYYCVRSGREFDYWGQGTLVTVSSASTKGPSVFPLAPSSKSTSGGTAALGCLVKDYFPEPVTVSWNSGALTSGVHTFPAVLQSSGLYSLSSVVTVPSSSLGTQTYICNVNHKPSNTKVDKKVEPKSCDKTHTCPPCPAPELLGGPSVFLFPPKPKDTLMISRTPEVTCVVVDVGGGSGGGSGGGSVKFNWYVDGVEVHNAKTKPREEQYNSTYRVVSVLTVLHQDWLNGKEYKCKVSNDALPMPIEETISKAKGQPREPQVYTLPPSRCELTKNQVSLSCAVKGFYPSDIAVEWESNGQPENNYKTTPPVLDSDGSFFLVSKLTVDKSRWQQGNVFSCSVMHEALHNHYTQKSLSLSP", "heavy 2": "B5 heavy 2", "light": "B5 light", "notes": "heterodimerized anti-EREG antibody: altered H240-Hl076 chain (Gly/Ser peptide in loop) with H240-Kn125 and L73-k0; also called Hl076-L2-GS12_2"}, "B9": {"name": "HI076-L2-3 (antibody, human IgG1, kappa)", "heavy 1": "QDQLVQSGAEVKKPGASVKVSCKASGFNIKDTYIQWVRQAPGQGLEWMGRIDPLRKQTKYREKFEGRVTITADTSTNTAYMELSSLRSEDTAVYYCVRSGREFDYWGQGTLVTVSSASTKGPSVFPLAPSSKSTSGGTAALGCLVKDYFPEPVTVSWNSGALTSGVHTFPAVLQSSGLYSLSSVVTVPSSSLGTQTYICNVNHKPSNTKVDKKVEPKSCDKTHTCPPCPAPELLGGPSVFLFPPKPKDTLMISRTPEVTCVVVDVSHGGSEEPEVKFNWYVDGVEVHNAKTKPREEQYNSTYRVVSVLTVLHQDWLNGKEYKCKVSNDALPMPIEETISKAKGQPREPQVYTLPPSRCELTKNQVSLSCAVKGFYPSDIAVEWESNGQPENNYKTTPPVLDSDGSFFLVSKLTVDKSRWQQGNVFSCSVMHEALHNHYTQKSLSLSP", "heavy 2": "B5 heavy 2", "light": "B5 light", "notes": "heterodimerized anti-EREG antibody: altered H240-Hl076 chain (Gly/Ser peptide in loop) with H240-Kn125 and L73-k0; also called Hl076-L2-3"}, "B10": {"name": "Kn125-L4-GS5 (antibody, human IgG1, kappa)", "heavy 1": "B5 heavy 1", "heavy 2": "B5 heavy 2 with K325G, A326S, L327G, P328G, A329S", "light": "B5 light", "notes": "heterodimerized anti-EREG antibody: altered H240-Kn125 chain (Gly/Ser peptide in loop) with H240-Hl076 and L73-k0"}, "B11": {"name": "HI076-L2-GS6 (antibody, human IgG1, kappa)", "heavy 1": "B5 heavy 1 with S266G, H267G, E268S, E269G, P270G, E271S", "heavy 2": "B5 heavy 2", "light": "B5 light", "notes": "heterodimerized anti-EREG antibody: altered H240-Hl076 chain (Gly/Ser peptide in loop) with H240-Kn125 and L73-k0; also called Hl076-L2-GS6_2"}, "B12": {"name": "HI076-L2-6 (antibody, human IgG1, kappa)", "heavy 1": "B8 heavy 1 with G266S, G267H, S269G, G270S, G274E, G275E, G276P, S277E", "heavy 2": "B5 heavy 2", "light": "B5 light", "notes": "heterodimerized anti-EREG antibody: altered H240-Hl076 chain (Gly/Ser peptide in loop) with H240-Kn125 and L73-k0; also called Hl076-L2-6"}}, "note": "Where a chain is given by its changes, count along the chain named."}
{"molecular_target": "T1, FcγRIa extracellular domain, C-terminal His tag (human, UniProt P12314 16-292)", "T1 construct": "extracellular domain; also called 1a", "T1 sequence (P12314 other isoform, or with tags, fused parts or gaps)": "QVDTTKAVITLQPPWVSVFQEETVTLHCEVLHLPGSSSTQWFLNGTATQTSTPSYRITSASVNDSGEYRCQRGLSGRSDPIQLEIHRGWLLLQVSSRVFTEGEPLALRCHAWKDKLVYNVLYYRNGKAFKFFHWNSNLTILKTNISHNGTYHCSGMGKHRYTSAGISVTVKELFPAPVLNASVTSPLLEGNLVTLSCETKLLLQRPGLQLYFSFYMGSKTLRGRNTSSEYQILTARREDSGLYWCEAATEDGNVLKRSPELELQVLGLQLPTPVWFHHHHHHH", "assay": "SPR (Biacore); binding relative to GpH7-A5/GpH7-B3/GpL16-k0 x100;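 further: antibodies captured on a chip surface, soluble FcγR flowed over in HBS-EP+ running buffer at 25 °C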", "units": {"He/Con 1a": "%"}}
{"binder": "B1", "He/Con 1a": 93.2}
{"binder": "B2", "He/Con 1a": 104}
{"binder": "B3", "He/Con 1a": 96.9}
{"binder": "B4", "He/Con 1a": 106}
{"molecular_target": "T2, FcγRIIa(R) extracellular domain, C-terminal His tag (human, UniProt P12318 34-217)", "T2 construct": "extracellular domain; Allotype R131; also called 2aR", "T2 sequence": "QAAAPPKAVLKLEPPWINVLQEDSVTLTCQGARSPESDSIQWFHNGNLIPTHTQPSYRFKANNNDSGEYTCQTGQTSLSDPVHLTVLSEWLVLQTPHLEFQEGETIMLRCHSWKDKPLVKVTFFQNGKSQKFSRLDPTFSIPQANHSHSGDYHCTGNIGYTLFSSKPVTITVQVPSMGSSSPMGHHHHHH", "assay": "SPR (Biacore); binding relative to GpH7-A5/GpH7-B3/GpL16-k0 x100;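 further: antibodies captured on a chip surface, soluble FcγR flowed over in HBS-EP+ running buffer at 25 °C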", "units": {"He/Con 2aR": "%"}}
{"binder": "B1", "He/Con 2aR": 94.4}
{"binder": "B2", "He/Con 2aR": 118}
{"binder": "B3", "He/Con 2aR": 99.9}
{"binder": "B4", "He/Con 2aR": 105}
{"molecular_target": "T3, FcγRIIa(H) extracellular domain, C-terminal His tag (human, UniProt P12318 34-217)", "T3 construct": "extracellular domain; Allotype H131; also called 2aH", "T3 sequence": "T2 sequence with R134H", "assay": "SPR (Biacore); binding relative to GpH7-A5/GpH7-B3/GpL16-k0 x100;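 further: antibodies captured on a chip surface, soluble FcγR flowed over in HBS-EP+ running buffer at 25 °C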", "units": {"He/Con 2aH": "%"}}
{"binder": "B1", "He/Con 2aH": 110}
{"binder": "B2", "He/Con 2aH": 122}
{"binder": "B3", "He/Con 2aH": 114}
{"binder": "B4", "He/Con 2aH": 113}
{"molecular_target": "T4, FcγRIIb extracellular domain, C-terminal His tag (human, UniProt P31994 43-217)", "T4 construct": "extracellular domain; also called 2b", "T4 sequence": "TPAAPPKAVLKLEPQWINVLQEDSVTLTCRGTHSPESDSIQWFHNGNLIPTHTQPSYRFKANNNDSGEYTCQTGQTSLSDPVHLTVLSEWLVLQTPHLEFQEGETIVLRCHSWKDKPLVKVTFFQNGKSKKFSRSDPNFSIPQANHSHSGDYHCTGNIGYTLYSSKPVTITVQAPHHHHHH", "assay": "SPR (Biacore); binding relative to GpH7-A5/GpH7-B3/GpL16-k0 x100;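 further: antibodies captured on a chip surface, soluble FcγR flowed over in HBS-EP+ running buffer at 25 °C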", "units": {"He/Con 2b": "%"}}
{"binder": "B1", "He/Con 2b": 106}
{"binder": "B2", "He/Con 2b": 126}
{"binder": "B3", "He/Con 2b": 102}
{"binder": "B4", "He/Con 2b": 109}
{"molecular_target": "T5, FcγRIIIa extracellular domain, C-terminal His tag (human, UniProt P08637 17-208)", "T5 construct": "extracellular domain; also called 3a", "T5 sequence (P08637 other isoform, or with tags, fused parts or gaps)": "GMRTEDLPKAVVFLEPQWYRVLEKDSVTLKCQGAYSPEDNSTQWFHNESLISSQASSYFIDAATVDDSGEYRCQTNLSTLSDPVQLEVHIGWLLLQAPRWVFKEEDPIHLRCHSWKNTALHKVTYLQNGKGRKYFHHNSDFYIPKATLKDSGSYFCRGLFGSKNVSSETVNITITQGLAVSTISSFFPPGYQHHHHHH", "assay": "SPR (Biacore); binding relative to GpH7-A5/GpH7-B3/GpL16-k0 x100", "units": {"He/Con 3a": "%"}}
{"binder": "B1", "He/Con 3a": 114}
{"binder": "B2", "He/Con 3a": 124}
{"binder": "B3", "He/Con 3a": 113}
{"binder": "B4", "He/Con 3a": 113}
{"molecular_target": "T6, FcγRIIIaV (human, UniProt P08637 17-208)", "T6 construct": "extracellular domain", "T6 sequence (P08637 other isoform, or with tags, fused parts or gaps)": "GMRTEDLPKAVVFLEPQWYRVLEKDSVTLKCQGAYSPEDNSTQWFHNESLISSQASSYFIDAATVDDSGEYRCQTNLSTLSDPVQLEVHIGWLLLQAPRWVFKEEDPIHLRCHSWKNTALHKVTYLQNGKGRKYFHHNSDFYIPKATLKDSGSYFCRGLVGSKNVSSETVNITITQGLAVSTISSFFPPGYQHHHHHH", "assay": "SPR (Biacore), antibody captured, FcγR as analyte, 1:1 Langmuir fit", "units": {"Kd": "nM"}, "procedure": "The antibody of interest was analyzed for its interaction with FcγR using a BiaCore™ T100, BiaCore™ A100, or BiaCore™ 4000 surface plasmon resonance system (GE Healthcare Japan Corp.). The running buffer used was HBS-EP+ (GE Healthcare Japan Corp.). The assay temperature was set to 25° C. The sensor chips used were: a chip prepared by immobilizing antigenic peptides onto Series S Sensor Chip CM5 (GE Healthcare Japan Corp.) by the amine coupling method; a chip prepared by immobilizing antigenic peptides biotinylated in advance onto Series S Sensor Chip SA (certified) (GE Healthcare Japan Corp.) through their interaction; a chip prepared by immobilizing protein L (ACTIGEN, BioVision, Inc.) onto Series S Sensor Chip CM5 (GE Healthcare Japan Corp.); and a chip prepared by immobilizing protein A/G (Thermo Fisher Scientific K.K.) onto Series S Sensor Chip CM5 (GE Healthcare Japan Corp.). The antibody of interest was captured onto any of these chips and allowed to interact with FcγR diluted with a running buffer. The antibody captured on the chip was washed off through the reaction of 10 mM glycine-HCl (pH 1.5) to regenerate the chip, which was repetitively used."}
{"binder": "B5", "Kd": 0.47}
{"binder": "B6", "Kd": 2.9}
{"binder": "B7", "Kd": 2.4}
{"binder": "B8", "Kd": 2.8}
{"binder": "B9", "Kd": 2.3}
{"binder": "B10", "Kd": 1.8}
{"binder": "B11", "Kd": 2.8}
{"binder": "B12", "Kd": 1.9}
